Source: the RNAGym collection of RNA variant scans (doi:10.7554/elife.80360)

B1: CPEB3 Ribozyme (parent)
chain: GGGGGCCACAGCAGAAGCGUUCACGUCGCGGCCCCUGUCAGAUUCUGGUGAAUCUGCGAAUUCUGCUGU

Variants of: B1
Experiment: self-cleavage, relative activity (ratio to wild type); higher = more cleavage; co-transcriptional

Q: With UGGGGCCACAGCAGAAGCGUUCACGUCGCGGCCCCUGUCAGAUUCUGGUGAAUCUGUGAAUUCUGCUGU [G1U C57U] as the variant, how does the self-cleavage read?
A: Its self-cleavage is 0.0565.

Q: Which self-cleavage does the source give for UGGGGCCACAGCAGAAGCGUUCACGUCGCGGCCCCUGUCAGAUUCUGGUGAAUCUGCGAAUUAUGCUGU [G1U C63A] here?
A: The self-cleavage was 0.101.

Q: With UGGGGCCACAGCAGAAGCGUUCACGUCGCGGCCCCUGUCAGAUUCUGGUGAAUCUGCGAAUUUUGCUGU [G1U C63U] as the variant, how does the self-cleavage read?
A: Its self-cleavage is 0.0897.

Q: With UGGGGCCACAGCAGAAGCGUUCACGUCGCGGCCCCUGUCAGAUUCUGGUGAAUCUGCGAAUUCUGAUGU [G1U C66A] as the variant, how does the self-cleavage read?
A: Its self-cleavage is 0.0594.

Q: Which self-cleavage does the source give for UGGGGCCACAGCAGAAGCGUUCACGUCGCGGCCCCUGUCAGAUUCUGGUGAAUCUGCGAAUUCUGGUGU [G1U C66G] here?
A: Its self-cleavage is 0.0803.

Q: Which self-cleavage does the source give for UAGGGCCACAGCAGAAGCGUUCACGUCGCGGCCCCUGUCAGAUUCUGGUGAAUCUGCGAAUUCUGCUGU [G1U G2A] here?
A: Its self-cleavage is 0.0657.

Q: Which self-cleavage does the source give for UCGGGCCACAGCAGAAGCGUUCACGUCGCGGCCCCUGUCAGAUUCUGGUGAAUCUGCGAAUUCUGCUGU [G1U G2C] here?
A: The self-cleavage was 0.333.

Q: For UGAGGCCACAGCAGAAGCGUUCACGUCGCGGCCCCUGUCAGAUUCUGGUGAAUCUGCGAAUUCUGCUGU [G1U G3A], which self-cleavage is on record?
A: Its self-cleavage is 0.04.

Q: Which self-cleavage does the source give for UGCGGCCACAGCAGAAGCGUUCACGUCGCGGCCCCUGUCAGAUUCUGGUGAAUCUGCGAAUUCUGCUGU [G1U G3C] here?
A: The self-cleavage was 0.0566.

Q: For UGUGGCCACAGCAGAAGCGUUCACGUCGCGGCCCCUGUCAGAUUCUGGUGAAUCUGCGAAUUCUGCUGU [G1U G3U], which self-cleavage is on record?
A: The self-cleavage was 0.0448.

Q: Which self-cleavage does the source give for UGGAGCCACAGCAGAAGCGUUCACGUCGCGGCCCCUGUCAGAUUCUGGUGAAUCUGCGAAUUCUGCUGU [G1U G4A] here?
A: Its self-cleavage is 0.112.

Q: With UGGCGCCACAGCAGAAGCGUUCACGUCGCGGCCCCUGUCAGAUUCUGGUGAAUCUGCGAAUUCUGCUGU [G1U G4C] as the variant, how does the self-cleavage read?
A: Its self-cleavage is 0.0734.

Q: Which self-cleavage does the source give for UGGUGCCACAGCAGAAGCGUUCACGUCGCGGCCCCUGUCAGAUUCUGGUGAAUCUGCGAAUUCUGCUGU [G1U G4U] here?
A: The self-cleavage was 0.127.

Q: For UGGGCCCACAGCAGAAGCGUUCACGUCGCGGCCCCUGUCAGAUUCUGGUGAAUCUGCGAAUUCUGCUGU [G1U G5C], which self-cleavage is on record?
A: The self-cleavage was 0.0789.

Q: For UGGGGCCACAACAGAAGCGUUCACGUCGCGGCCCCUGUCAGAUUCUGGUGAAUCUGCGAAUUCUGCUGU [G1U G11A], which self-cleavage is on record?
A: The self-cleavage was 0.0662.

Q: Which self-cleavage does the source give for UGGGGCCACAGCAAAAGCGUUCACGUCGCGGCCCCUGUCAGAUUCUGGUGAAUCUGCGAAUUCUGCUGU [G1U G14A] here?
A: The self-cleavage was 0.118.

Q: Which self-cleavage does the source give for UGGGGCCACAGCACAAGCGUUCACGUCGCGGCCCCUGUCAGAUUCUGGUGAAUCUGCGAAUUCUGCUGU [G1U G14C] here?
A: Its self-cleavage is 0.133.

Q: With UGGGGCCACAGCAGAAUCGUUCACGUCGCGGCCCCUGUCAGAUUCUGGUGAAUCUGCGAAUUCUGCUGU [G1U G17U] as the variant, how does the self-cleavage read?
A: Its self-cleavage is 0.0803.

Q: For UGGGGCCACAGCAGAAGCAUUCACGUCGCGGCCCCUGUCAGAUUCUGGUGAAUCUGCGAAUUCUGCUGU [G1U G19A], which self-cleavage is on record?
A: Its self-cleavage is 0.0502.

Q: For UGGGGCCACAGCAGAAGCGUUCACGUCACGGCCCCUGUCAGAUUCUGGUGAAUCUGCGAAUUCUGCUGU [G1U G28A], which self-cleavage is on record?
A: The self-cleavage was 0.0369.

Q: For UGGGGCCACAGCAGAAGCGUUCACGUCCCGGCCCCUGUCAGAUUCUGGUGAAUCUGCGAAUUCUGCUGU [G1U G28C], which self-cleavage is on record?
A: The self-cleavage was 0.0671.

Q: Which self-cleavage does the source give for UGGGGCCACAGCAGAAGCGUUCACGUCGCCGCCCCUGUCAGAUUCUGGUGAAUCUGCGAAUUCUGCUGU [G1U G30C] here?
A: The self-cleavage was 0.0755.

Q: For UGGGGCCACAGCAGAAGCGUUCACGUCGCUGCCCCUGUCAGAUUCUGGUGAAUCUGCGAAUUCUGCUGU [G1U G30U], which self-cleavage is on record?
A: Its self-cleavage is 0.0366.

Q: For UGGGGCCACAGCAGAAGCGUUCACGUCGCGACCCCUGUCAGAUUCUGGUGAAUCUGCGAAUUCUGCUGU [G1U G31A], which self-cleavage is on record?
A: Its self-cleavage is 0.0918.

Q: Which self-cleavage does the source give for UGGGGCCACAGCAGAAGCGUUCACGUCGCGCCCCCUGUCAGAUUCUGGUGAAUCUGCGAAUUCUGCUGU [G1U G31C] here?
A: Its self-cleavage is 0.0835.

Q: With UGGGGCCACAGCAGAAGCGUUCACGUCGCGUCCCCUGUCAGAUUCUGGUGAAUCUGCGAAUUCUGCUGU [G1U G31U] as the variant, how does the self-cleavage read?
A: Its self-cleavage is 0.0933.

Q: For UGGGGCCACAGCAGAAGCGUUCACGUCGCGGCCCCUAUCAGAUUCUGGUGAAUCUGCGAAUUCUGCUGU [G1U G37A], which self-cleavage is on record?
A: Its self-cleavage is 0.0613.

Q: With UGGGGCCACAGCAGAAGCGUUCACGUCGCGGCCCCUGUCAAAUUCUGGUGAAUCUGCGAAUUCUGCUGU [G1U G41A] as the variant, how does the self-cleavage read?
A: Its self-cleavage is 0.123.

Q: With UGGGGCCACAGCAGAAGCGUUCACGUCGCGGCCCCUGUCACAUUCUGGUGAAUCUGCGAAUUCUGCUGU [G1U G41C] as the variant, how does the self-cleavage read?
A: Its self-cleavage is 0.036.

Q: Which self-cleavage does the source give for UGGGGCCACAGCAGAAGCGUUCACGUCGCGGCCCCUGUCAUAUUCUGGUGAAUCUGCGAAUUCUGCUGU [G1U G41U] here?
A: Its self-cleavage is 0.116.

Q: With UGGGGCCACAGCAGAAGCGUUCACGUCGCGGCCCCUGUCAGAUUCUAGUGAAUCUGCGAAUUCUGCUGU [G1U G47A] as the variant, how does the self-cleavage read?
A: Its self-cleavage is 0.117.

Q: Which self-cleavage does the source give for UGGGGCCACAGCAGAAGCGUUCACGUCGCGGCCCCUGUCAGAUUCUUGUGAAUCUGCGAAUUCUGCUGU [G1U G47U] here?
A: Its self-cleavage is 0.14.

Q: With UGGGGCCACAGCAGAAGCGUUCACGUCGCGGCCCCUGUCAGAUUCUGAUGAAUCUGCGAAUUCUGCUGU [G1U G48A] as the variant, how does the self-cleavage read?
A: Its self-cleavage is 0.192.

Q: With UGGGGCCACAGCAGAAGCGUUCACGUCGCGGCCCCUGUCAGAUUCUGCUGAAUCUGCGAAUUCUGCUGU [G1U G48C] as the variant, how does the self-cleavage read?
A: Its self-cleavage is 0.0782.

Q: For UGGGGCCACAGCAGAAGCGUUCACGUCGCGGCCCCUGUCAGAUUCUGUUGAAUCUGCGAAUUCUGCUGU [G1U G48U], which self-cleavage is on record?
A: The self-cleavage was 0.079.

Q: Which self-cleavage does the source give for UGGGGCCACAGCAGAAGCGUUCACGUCGCGGCCCCUGUCAGAUUCUGGUCAAUCUGCGAAUUCUGCUGU [G1U G50C] here?
A: The self-cleavage was 0.0733.

Q: With UGGGGCCACAGCAGAAGCGUUCACGUCGCGGCCCCUGUCAGAUUCUGGUUAAUCUGCGAAUUCUGCUGU [G1U G50U] as the variant, how does the self-cleavage read?
A: The self-cleavage was 0.056.

Q: With UGGGGCCACAGCAGAAGCGUUCACGUCGCGGCCCCUGUCAGAUUCUGGUGAAUCUCCGAAUUCUGCUGU [G1U G56C] as the variant, how does the self-cleavage read?
A: Its self-cleavage is 0.105.

Q: Which self-cleavage does the source give for UGGGGCCACAGCAGAAGCGUUCACGUCGCGGCCCCUGUCAGAUUCUGGUGAAUCUUCGAAUUCUGCUGU [G1U G56U] here?
A: Its self-cleavage is 0.108.
